Experiments:
[1] = target: DarB (Bacillus subtilis, UniProt O31698); assay: biochemical
[2] = target: T1, Rel (Bacillus subtilis, UniProt O54408); assay: hydrolase assay, GTP formation by LC-MS/MS; assay type: biochemical; conditions: 1 mM pppGpp, 1 mM MnCl2, 5 mM Mg(OAc)2, HEPES:Polymix pH 7.5, 37 °C; without DarB
T1 construct: gene relA; full-length (734 residues), 10xHis-SUMO fusion from plasmid pVHP186 in E. coli Rosetta(DE3), SUMO tag cleaved, RNA-free

[3] = target: Rel, full length, purified, SUMO tag removed (B. subtilis, UniProt O54408 1-734); assay: cell-based or functional assay
[4] = target: T2, Rel^NTD, purified, as used in SEC-MALS and ITC (B. subtilis 168, UniProt O54408 1-391); assay: ITC; 10 µM Rel^NTD in the cell, 100 µM DarB in the syringe, 50 mM Tris-HCl pH 8.3, 200 mM NaCl, 20 °C; conditions: both partners purified
T2 construct: Rel, Bacillus subtilis 168, aa 1-391 (HYD and SYN domains); the only expression plasmid named is pGP3350 (Strep-tagged); The SEC-MALS methods speak of 'purified tag-free proteins', but no removal of the Strep tag from Rel^NTD is described; Monomer by SEC-MALS; source: E. coli Rosetta(DE3), purified (StrepTactin)

[5] = target: the molecule itself; assay: SEC-MALS; Rel^NTD and DarB alone or pre-mixed 1:1 (~1 mg/ml each) in 1× ZAP buffer (50 mM Tris-HCl, 200 mM NaCl, pH 7.5), Superdex 200 10/300GL; fractions on SDS-PAGE

Sequence of Rel, full length, purified, SUMO tag removed (O54408 whole entry): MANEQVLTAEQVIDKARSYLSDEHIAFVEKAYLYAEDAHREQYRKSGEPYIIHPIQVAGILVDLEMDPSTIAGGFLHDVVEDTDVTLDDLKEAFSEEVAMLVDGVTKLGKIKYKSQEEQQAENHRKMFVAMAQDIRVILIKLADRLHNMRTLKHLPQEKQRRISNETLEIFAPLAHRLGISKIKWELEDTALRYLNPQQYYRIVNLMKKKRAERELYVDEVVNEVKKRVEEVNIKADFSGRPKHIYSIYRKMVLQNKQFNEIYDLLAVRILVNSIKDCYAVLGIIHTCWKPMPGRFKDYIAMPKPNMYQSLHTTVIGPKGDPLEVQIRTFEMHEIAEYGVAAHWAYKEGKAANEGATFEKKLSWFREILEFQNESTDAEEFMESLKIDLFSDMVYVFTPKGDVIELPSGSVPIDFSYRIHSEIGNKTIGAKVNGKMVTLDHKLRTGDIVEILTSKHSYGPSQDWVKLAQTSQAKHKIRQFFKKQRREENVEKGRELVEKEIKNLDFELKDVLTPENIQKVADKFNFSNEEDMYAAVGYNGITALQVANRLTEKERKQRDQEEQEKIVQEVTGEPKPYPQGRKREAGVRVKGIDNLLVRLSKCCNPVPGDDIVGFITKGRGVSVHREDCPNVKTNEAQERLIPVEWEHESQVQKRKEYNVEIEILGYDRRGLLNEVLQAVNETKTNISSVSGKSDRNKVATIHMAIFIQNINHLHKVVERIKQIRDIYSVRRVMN
T2 sequence (O54408 1-391): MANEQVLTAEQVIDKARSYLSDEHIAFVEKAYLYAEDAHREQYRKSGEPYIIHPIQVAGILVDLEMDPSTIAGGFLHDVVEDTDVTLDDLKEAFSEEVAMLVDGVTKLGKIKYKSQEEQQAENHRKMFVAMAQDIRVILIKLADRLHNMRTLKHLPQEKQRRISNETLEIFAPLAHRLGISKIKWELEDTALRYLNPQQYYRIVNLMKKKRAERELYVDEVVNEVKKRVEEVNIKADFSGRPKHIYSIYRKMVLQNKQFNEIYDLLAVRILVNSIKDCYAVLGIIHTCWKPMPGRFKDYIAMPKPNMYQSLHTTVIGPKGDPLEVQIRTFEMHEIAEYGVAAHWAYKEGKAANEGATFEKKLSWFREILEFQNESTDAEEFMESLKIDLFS
T1 sequence (O54408 whole entry, the tested form may be a part): as the sequence (O54408 whole entry) above
Sequence of DarB (O31698 whole entry): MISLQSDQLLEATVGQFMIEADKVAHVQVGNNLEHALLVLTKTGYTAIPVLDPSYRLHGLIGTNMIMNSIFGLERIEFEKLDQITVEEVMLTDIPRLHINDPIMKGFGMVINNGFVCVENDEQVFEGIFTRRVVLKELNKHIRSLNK

## Nc1ncnc2c1ncn2[C@@H]1O[C@@H]2COP(=O)(O)O[C@H]3[C@@H](O)[C@H](n4cnc5c(N)ncnc54)O[C@@H]3COP(=O)(O)O[C@H]2[C@H]1O [c-di-AMP]
[1]
  Kd: ~45 nM

## Nc1nc2c(ncn2[C@@H]2O[C@H](COP(=O)(O)OP(=O)(O)OP(=O)(O)O)[C@@H](OP(=O)(O)OP(=O)(O)O)[C@H]2O)c(=O)[nH]1 [pppGpp]
[2]
  hydrolase assay, GTP formation by LC-MS/MS: we determined the formation of GTP resulting from the hydrolysis of pppGpp

B1: DarB, purified, SUMO tag removed (natural protein, B. subtilis 168)
chain: ISLQSDQLLEATVGQFMIEADKVAHVQVGNNLEHALLVLTKTGYTAIPVLDPSYRLHGLIGTNMIMNSIFGLERIEFEKLDQITVEEVMLTDIPRLHINDPIMKGFGMVINNGFVCVENDEQVFEGIFTRRVVLKELNKHIRSLNK
notes: darB amplified from chromosomal DNA and cloned into pET-SUMO (pGP2972); Dimer by SEC-MALS; Apo form as made in E. coli; in some experiments preincubated or saturated with c-di-AMP (written as a condition of the assay); also called apo-DarB; c-di-AMP receptor DarB; source: E. coli Rosetta(DE3), purified (Ni-NTA; SUMO tag removed with SUMO protease)
[3]
  pppGpp hydrolase activity of purified Rel (0.5 µM) with DarB (5 µM), against Rel alone (8.7 pmol of GTP per pmol of Rel per minute): 6 fold
  pppGpp synthetase activity of purified Rel (0.5 µM) with DarB (5 µM), against Rel alone (1.1 pmol pppGpp per pmol of Rel per minute): 3 fold
[4]
  Kd: 650 nM
  stoichiometry N: 1
[5]
  stoichiometry N: 2

From PMC7900238, “A meet-up of two second messengers: the c-di-AMP receptor DarB controls (p)ppGpp synthesis in Bacillus subtilis” (Nature Communications, 2021)
